From US20250270529

Tested on: T1, Cas13f v3 (v2+D160A&D642A) (synthetic construct)
T1 sequence: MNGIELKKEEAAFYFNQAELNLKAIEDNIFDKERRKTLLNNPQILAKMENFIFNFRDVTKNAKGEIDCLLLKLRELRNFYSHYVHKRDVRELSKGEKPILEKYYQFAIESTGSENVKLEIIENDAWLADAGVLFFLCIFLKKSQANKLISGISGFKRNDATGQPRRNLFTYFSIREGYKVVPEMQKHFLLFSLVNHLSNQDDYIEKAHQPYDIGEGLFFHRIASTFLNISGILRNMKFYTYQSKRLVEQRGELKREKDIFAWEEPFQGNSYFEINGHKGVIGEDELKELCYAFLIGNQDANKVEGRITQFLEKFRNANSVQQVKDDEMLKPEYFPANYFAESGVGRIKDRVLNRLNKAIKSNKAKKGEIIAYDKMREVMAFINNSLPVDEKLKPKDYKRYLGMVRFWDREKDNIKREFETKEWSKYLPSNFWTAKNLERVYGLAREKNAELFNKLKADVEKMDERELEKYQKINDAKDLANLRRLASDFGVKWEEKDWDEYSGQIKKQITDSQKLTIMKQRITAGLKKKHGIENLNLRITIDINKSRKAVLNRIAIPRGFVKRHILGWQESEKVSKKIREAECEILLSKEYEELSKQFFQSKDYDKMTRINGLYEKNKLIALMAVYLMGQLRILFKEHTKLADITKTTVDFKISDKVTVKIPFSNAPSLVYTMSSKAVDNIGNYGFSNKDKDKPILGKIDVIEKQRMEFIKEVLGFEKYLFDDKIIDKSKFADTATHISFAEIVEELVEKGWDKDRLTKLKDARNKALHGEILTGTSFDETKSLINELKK
Assay: cell_activity
Conditions: HEK293T; non-targeting spacer control

Substance: non-targeting gRNA (DR-spacer-DR) ; mCherry reporter mRNA
- activity (RFP MFI (normalization reference)): 1
